Substitutions are numbered along the chain they refer to.
B1: 5103 (protein)
chain: MTPEQRIANVRAFYAALASGDLEAAKALFDPGVTITLWDGTTFTSLEEFLAWFEKQFDASKDAKREIVDIEVEGDVVRVLVRLTYTKDGKEKVVDLLQLLKFV
B2: 5104 (protein)
chain: B1 chain with Q5E, R6I, I7R, E23A, V33T, D58K, D69S, I70L, V76T, K87V
B3: 5286 (protein)
chain: MTPEERIANVRAFYAALASGDLEAAKALFDPGVTITLWDGTTFTSVEEFRAWFEEQFKTSKDALREIESIEVDGDTVRVLVRLTFVRDGEEKVVDLLQLFKFV
B4: 5268 (protein)
chain: MTPEEIRENVRRFYAALASGDLEAAKSLFDPGVTITLWDGTTFTSVEEFRAWFEEQFQTSKDALREIVSLEVEGDVVRVLVRLTFVRDGEVQEVDLLQLFKFV
B5: 5275 (protein)
chain: B4 chain with R7K, R11L, R12N, S27A, E55K, Q58K, L70M, V86T, E90K, Q92E
B6: 5264 (protein)
chain: MTPEEIRANVEAFYAALASGDWEAARALFDPGVTITLWDGTTFTSVEEFRAWFEEQFKTSKDALREIVDLEVEGDVVRVLVRLTFVRDGKEEVVDLLQLFKFV
B7: 5281 (protein)
chain: B6 chain with W22L, R26K, A27S, A51K, D69S, L70M, V72I, V76T, E91V, V93E
B8: 5288 (protein)
chain: B3 chain with E5A, R6I, R11K, E23A, I70M, D73E, E90K, K92E
B9: 5270 (protein)
chain: B6 chain with E5A, R7I, E11K, E23A, E55A, K58E, D69S, L70M, V76T, D88N
B10: 5269 (protein)
chain: B6 chain with A8E, E11R, W22L, E23A, R26K, E55K, D69S, V76T
B11: 5287 (protein)
chain: B6 chain with E5A, A8E, E11R, E23A, R26K, E55K, D69S, L70M, E92Q
B12: 5285 (protein)
chain: B6 chain with A12R, E23A, A24T, R26E, E47A, D69S, V72I, E73N, V86T
B13: 5273 (protein)
chain: B6 chain with E5A, A8E, E11R, R26K, E55K, D69S
B14: 5261 (protein)
chain: MTPEEIRANVRAFYAALASGDLAAARALFDPGVTITLWDGTTFTSVEEFRAWFEEQFQTSKDALREIESIEVEGDTVRVLVRLTFTRDGVTQEVDLLQLFKFV
B15: 5267 (protein)
chain: B14 chain with R7L, R26K, Q58K, E68V, I70A, V90K, T91V, Q92E
B16: 5262 (protein)
chain: B14 chain with I6R, R7I, A8E, L22W, E55K, Q58K, V90K, T91E, Q92E
B17: 5282 (protein)
chain: B3 chain with R6I, E55Q, K58Q, E68V, D73E, T76V, K92Q
B18: 5271 (protein)
chain: B14 chain with A8E, A12N, A23E, R26K, Q58K, E68V, I70M, V72I, T91E, E93V
B19: 5280 (protein)
chain: B6 chain with E11R, E55K, K58Q, D69A, K90V, E92Q, V93E
B20: 5284 (protein)
chain: B14 chain with I6R, R7F, A15E, A23E, R26K, E68V, S69D, I70M, D88N, V90E
B21: 5279 (protein)
chain: B4 chain with R12A, E23A, S27A, V72I, V86T, D88N, V91T, E93V
B22: 5266 (protein)
chain: B14 chain with R26K, E68V, I70L, E71R, V90K, T91V
B23: 5274 (protein)
chain: B6 chain with E11R, E23A, R26E, E47A, E55A, K58Q, D69S, K90R, E91T, V93E
B24: 5276 (protein)
chain: B3 chain with P3D, R6I, I7R, E55K, I70L, D73E, E90K, K92Q
B25: 5283 (protein)
chain: MTPEEIRANVERFYAALASGDLETAKALFDPGVTITLWDGTTFTSVEEFRKWFEEQFETSKDALREIVSMEVEGDTVRVLVRLTFVRNGEEKVVDLLQLFKFV
B26: 5278 (protein)
chain: MTPEAIRENVEAFYAALASGDWEAAKALFDPGVTITLWDGTTFTSVEEFRAWFEEQFQTSKDALREIVSMRIEGDTVRVLVRLTFTRDGETQVVDLLQLFKFV
B27: 5263 (protein)
chain: MTPEEIRANVLAFYAALASGDLAAAEALFDPGVTITLWDGTTFTSVAEFRAWFEAQFQTSKDALREIVDMRVEGDVVRVLVRLTFVRDGEEQVVDLLQLFKFV
B28: 5277 (protein)
chain: B6 chain with E11R, W22L, R26K, A51K, D69E, L70M, E71R, V72I, E92Q
B29: 5272 (protein)
chain: B27 chain with I6R, R7I, L11R, L22W, A55Q, V68L, M70I, R71E, E90K
B30: 5265 (protein)
chain: B27 chain with E5Q, L11R, L22W, A55E, Q58K, D69S, R71E, V76T, Q92K

Tested on: SmLux
Assay: Computationally generated LgLux variants expressed in E. coli, tested in lysates with SmLux and substrate 1c
Type: biochemical
Conditions: 50 uM substrate 1c; for Fold change upon SmLux peptide addition: 20 uM SmLux; for Baseline Signal (Normalized by expression): before SmLux peptide addition
Protocol: LgLux sequences were designed computationally, and their activity measured as depicted schematically in FIG. 45.
A library of the computationally generated LgLux variants were expressed in E. coli and tested in lysates. 20 uM of SmLux and 50 uM of substrate 1c was used for the screening.
LgLux_4039 sequence is as set forth in SEQ ID NO:2773. MBIO-5103 through MBIO-5124, MBIO-5261 through MBIO-5295, MBIO-5101, and MBIO-5102 (SEQ ID NO:2815-SEQ ID NO:2873, respectively) are computationally generated LgLux. The sequences and activity of these LgLux are shown below in Table 21.
MBIO-5358 and MBIO-5360 through MBIO-5381 (SEQ ID NO:2774-SEQ ID NO:2796, respectively) are computationally generated LgLux.

| Molecule | Fold change upon SmLux peptide addition | Baseline Signal (Normalized by expression) |
| --- | --- | --- |
| B1 | 0.94 | 193.2 |
| B2 | 0.97 | 180.8 |
| B3 | 33.33 | 196 |
| B4 | 1.05 | 133 |
| B5 | 1.35 | 122.8 |
| B6 | 1.26 | 127.6 |
| B7 | 3.02 | 125.6 |
| B8 | 1.6 | 170.8 |
| B9 | 1.25 | 135.2 |
| B10 | 1.1 | 137.2 |
| B11 | 1.1 | 174.8 |
| B12 | 1.26 | 188 |
| B13 | 1.01 | 140.4 |
| B14 | 2.16 | 176.8 |
| B15 | 1.42 | 130.6 |
| B16 | 2.29 | 139.6 |
| B17 | 1.18 | 131.8 |
| B18 | 10.11 | 145 |
| B19 | 1.07 | 129.2 |
| B20 | 5.16 | 186.8 |
| B21 | 1.12 | 111.8 |
| B22 | 1.09 | 129.8 |
| B23 | 1.07 | 125.2 |
| B24 | 6.45 | 125.6 |
| B25 | 1.14 | 141.4 |
| B26 | 1.61 | 121.2 |
| B27 | 1.38 | 137.4 |
| B28 | 1.19 | 120.6 |
| B29 | 11.86 | 141.4 |
| B30 | 2.8 | 126.4 |
